Consider 6 molecules from doi:10.1101/2021.05.25.445566 (bioRxiv, 2021).

By stoichiometry N is commonly meant a count of units in the complex or per binding partner.

B6: MlaE, His-tagged (His-E), permease of the MlaFEDB ABC transporter (natural protein)
chain: MLLNALASLGHKGIKTLRTFGRAGLMLFNALVGKPEFRKHAPLLVRQLYNVGVLSMLIIVVSGVFIGMVLGLQGYLVLTTYSAETSLGMLVALSLLRELGPVVAALLFAGRAGSALTAEIGLMRATEQLSSMEMMAVDPLRRVISPRFWAGVISLPLLTVIFVAVGIWGGSLVGVSWKGIDSGFFWSAMQNAVDWRMDLVNCLIKSVVFAITVTWISLFNGYDAIPTSAGISRATTRTVVHSSLAVLGLDFVLTALMFGN

Data set [1] addresses B6. The data set is described as follows: SEC. On the technique in general: SEC sorts molecules by how far they enter the pores of the column.
Data set [2] concerns the molecule itself. The data set is described as follows: SDS-PAGE of SDS-resistant oligomers.
Data set [3] deals with T1, MlaF, nucleotide binding domain of the MlaFEDB ABC transporter (UniProt P63386 1-269).
T1 sequence: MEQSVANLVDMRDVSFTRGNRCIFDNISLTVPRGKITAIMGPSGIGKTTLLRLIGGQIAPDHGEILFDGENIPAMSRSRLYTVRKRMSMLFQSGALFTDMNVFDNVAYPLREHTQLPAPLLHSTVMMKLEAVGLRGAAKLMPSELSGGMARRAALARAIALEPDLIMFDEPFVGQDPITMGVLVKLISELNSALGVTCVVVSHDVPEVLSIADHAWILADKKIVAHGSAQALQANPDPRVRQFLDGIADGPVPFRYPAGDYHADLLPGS
The data set is described as follows: SEC.

Data set [4] has as its target T2, MlaF K47A (Walker A variant) (UniProt P63386 1-269, K47A).
T2 sequence: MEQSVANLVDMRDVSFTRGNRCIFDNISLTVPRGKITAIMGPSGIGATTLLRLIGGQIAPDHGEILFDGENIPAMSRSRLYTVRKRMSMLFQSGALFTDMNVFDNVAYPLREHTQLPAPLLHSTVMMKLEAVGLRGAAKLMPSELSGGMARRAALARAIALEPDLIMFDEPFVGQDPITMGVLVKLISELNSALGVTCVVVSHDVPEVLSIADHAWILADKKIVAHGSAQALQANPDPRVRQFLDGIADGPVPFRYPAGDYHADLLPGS
Description: SEC.

B1: MlaD, substrate-binding MCE-domain protein of the MlaFEDB complex (natural protein)
chain: MQTKKNEIWVGIFLLAALLAALFVCLKAANVTSIRTEPTYTLYATFDNIGGLKARSPVSIGGVVVGRVADITLDPKTYLPRVTLEIEQRYNHIPDTSSLSIRTSGLLGEQYLALNVGFEDPELGTAILKDGDTIQDTKSAMVLEDLIGQFLYGSKGDDNKNSGDAPAAAPGNNETTEPVGTTK
For the molecule B1, the binding result in data set [1] is on record as “binds”.

B2: MlaD L106N/L107N (natural protein)
chain: MQTKKNEIWVGIFLLAALLAALFVCLKAANVTSIRTEPTYTLYATFDNIGGLKARSPVSIGGVVVGRVADITLDPKTYLPRVTLEIEQRYNHIPDTSSLSIRTSGNNGEQYLALNVGFEDPELGTAILKDGDTIQDTKSAMVLEDLIGQFLYGSKGDDNKNSGDAPAAAPGNNETTEPVGTTK
Turning to B2, the binding result in data set [1] is reported as “binds”. Also, the “stoichiometry N” value in data set [2] came to 6.

B3: MlaD Δ141-183 (natural protein)
chain: MQTKKNEIWVGIFLLAALLAALFVCLKAANVTSIRTEPTYTLYATFDNIGGLKARSPVSIGGVVVGRVADITLDPKTYLPRVTLEIEQRYNHIPDTSSLSIRTSGLLGEQYLALNVGFEDPELGTAILKDGDTIQDTKSA
Consider B3, for which the binding result in data set [1] is recorded as “binds”. In data set [2], the “stoichiometry N” value came out at 6.

B4: MlaB, cytoplasmic STAS-domain protein of the MlaFEDB complex (natural protein)
chain: MSESLSWMQTGDTLALSGELDQDVLLPLWEMREEAVKGITCIDLSRVSRVDTGGLALLLHLIDLAKKQGNNVTLQGVNDKVYTLAKLYNLPADVLPR
Consider B4, for which, in data set [1], the binding result is recorded as “binds”.

B5: MlaB T52A (natural protein)
chain: MSESLSWMQTGDTLALSGELDQDVLLPLWEMREEAVKGITCIDLSRVSRVDAGGLALLLHLIDLAKKQGNNVTLQGVNDKVYTLAKLYNLPADVLPR
For the molecule B5, in data set [1], the binding result is listed as “binds”.

Regarding B6, the binding result in data set [3] and in data set [4] was “binds” throughout.
